Common to all, as to assay: cell-based or functional assay
For assay [1], the target named is human GLP-1 receptor (human, UniProt P43220 24-463).
For assay [2], the target named is T1, human GIP receptor (human, UniProt P48546 22-466).
T1 sequence (looked up): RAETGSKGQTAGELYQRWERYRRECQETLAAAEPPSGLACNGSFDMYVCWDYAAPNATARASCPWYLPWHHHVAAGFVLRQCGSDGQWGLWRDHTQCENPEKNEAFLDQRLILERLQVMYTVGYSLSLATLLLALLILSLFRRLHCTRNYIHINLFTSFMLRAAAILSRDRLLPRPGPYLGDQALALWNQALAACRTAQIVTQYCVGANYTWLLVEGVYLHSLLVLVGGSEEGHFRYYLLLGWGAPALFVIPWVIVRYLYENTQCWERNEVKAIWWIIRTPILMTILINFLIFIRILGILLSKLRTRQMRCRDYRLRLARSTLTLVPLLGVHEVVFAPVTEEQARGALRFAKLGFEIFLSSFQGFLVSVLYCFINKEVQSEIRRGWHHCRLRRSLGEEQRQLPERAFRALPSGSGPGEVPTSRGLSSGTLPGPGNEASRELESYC

Assay [3] concerns the target T2, human neuropeptide Y2 receptor (human, UniProt P49146 1-381).
T2 sequence (looked up): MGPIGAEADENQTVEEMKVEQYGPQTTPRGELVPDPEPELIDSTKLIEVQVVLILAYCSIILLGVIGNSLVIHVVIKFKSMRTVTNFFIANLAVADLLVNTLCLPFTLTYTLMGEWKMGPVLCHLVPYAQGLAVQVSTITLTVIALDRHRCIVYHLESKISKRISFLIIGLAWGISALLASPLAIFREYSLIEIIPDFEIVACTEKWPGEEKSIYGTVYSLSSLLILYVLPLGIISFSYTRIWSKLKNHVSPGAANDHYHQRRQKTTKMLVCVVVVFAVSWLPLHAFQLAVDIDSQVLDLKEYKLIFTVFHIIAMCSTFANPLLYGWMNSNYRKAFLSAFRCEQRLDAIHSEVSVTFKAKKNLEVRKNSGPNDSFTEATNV

Starred links: 1 amine or outer side, 2 acyl side, 3 side chain; linkers in the order of their positions; H or OH if unused. Non-standard residues stand in square brackets, D forms with d. Groups on a side chain read outwards from the residue. No end group written: not given here. *: point of attachment. C20 diacid = O=C(O)CCCCCCCCCCCCCCCCCCC(=O)*; C18 diacid = O=C(O)CCCCCCCCCCCCCCCCC(=O)*; γGlu = O=C(O)[C@H](CCC(=O)[*:2])N[*:1]; εLys = N[C@@H](CCCCN[*:1])C(=O)[*:2]; Aib = CC(C)(N)C(=O)O

With Y[Aib]EGTFTSDYSI[Aib]LEKQAE[Aib]AFVEWLIKGGPSEGASLRHYYNWLTRQRY-NH2 (not fully specified (residue 28); also: TFA salt) [Compound 278], in assay [1], the “EC50 hGLP1R 0.5% hP (CreLuc)” value stood at 0.56 nM and the “EC50 hGLP1R 100% hP (CreLuc)” value worked out at 13 nM. Moreover, in assay [2], the “EC50 hGIPR 0.5% hP (CreLuc)” value is 0.14 nM and the “EC50 hGIPR 100% hP (CreLuc)” value is 1.38 nM. Further, in assay [3], the “EC50 hNPY2R 0.5% hP (CreLuc)” value worked out at 17.5 nM and the “EC50 hNPY2R 100% hP (CreLuc)” value came to 88.6 nM.

In the case of Y[Aib]EGTFTSDYSI[Aib]LEKQAQ[Aib]AFVEWLIKGGPEEGASLRHYYNWLTRQRY-NH2 (not fully specified (residue 28); also: TFA salt) [Compound 285], in assay [1], the “EC50 hGLP1R 0.5% hP (CreLuc)” value amounted to 0.34 nM and the “EC50 hGLP1R 100% hP (CreLuc)” value came to 11.6 nM. Further, in assay [2], the “EC50 hGIPR 0.5% hP (CreLuc)” value was 1.57 nM and the “EC50 hGIPR 100% hP (CreLuc)” value was found to be 1.54 nM. In assay [3], the “EC50 hNPY2R 0.5% hP (CreLuc)” value was determined as 15.8 nM and the “EC50 hNPY2R 100% hP (CreLuc)” value is 48.8 nM.

On to Y[Aib]EGTFTSDYSI[Aib]LEKQAQ[Aib]AFVEWLIKGGPSEGASLRHYYNWLTRQRY-NH2 (not fully specified (residue 28); also: TFA salt) [Compound 286], for which, in assay [1], the “EC50 hGLP1R 0.5% hP (CreLuc)” value was 0.27 nM and the “EC50 hGLP1R 100% hP (CreLuc)” value amounted to 5.97 nM. For the same molecule, in assay [2], the “EC50 hGIPR 0.5% hP (CreLuc)” value worked out at 0.42 nM and the “EC50 hGIPR 100% hP (CreLuc)” value was determined as 2.03 nM. Moreover, in assay [3], the “EC50 hNPY2R 0.5% hP (CreLuc)” value worked out at 15.7 nM and the “EC50 hNPY2R 100% hP (CreLuc)” value amounted to 43.4 nM.

With Y[Aib]EGTFTSDYSI[Aib]LEKQAE[Aib]AFVEWLIK([γGlu-γGlu-γGlu-γGlu-C20 diacid])GGPSEGASLRHYYNWLTRQRY-NH2 (also: TFA salt) [Compound 280], in assay [1], the “EC50 hGLP1R 0.5% hP (CreLuc)” value was 0.44 nM and the “EC50 hGLP1R 100% hP (CreLuc)” value came out at 14.7 nM. Besides, in assay [2], the “EC50 hGIPR 0.5% hP (CreLuc)” value worked out at 0.38 nM and the “EC50 hGIPR 100% hP (CreLuc)” value worked out at 2.44 nM. In assay [3], the “EC50 hNPY2R 0.5% hP (CreLuc)” value is 15.6 nM and the “EC50 hNPY2R 100% hP (CreLuc)” value was 91.4 nM.

As for Y[Aib]EGTFTSDYSI[Aib]LEKQAQ[Aib]AFVEWLIK([εLys-γGlu-γGlu-γGlu-γGlu-γGlu-γGlu-γGlu-C20 diacid])GGPSEGASLRHYYNWLTRQRY-NH2 (also: TFA salt) [Compound 288], in assay [1], the “EC50 hGLP1R 0.5% hP (CreLuc)” value stood at 0.17 nM and the “EC50 hGLP1R 100% hP (CreLuc)” value worked out at 3.21 nM. For the same molecule, in assay [2], the “EC50 hGIPR 0.5% hP (CreLuc)” value turned out to be 0.51 nM and the “EC50 hGIPR 100% hP (CreLuc)” value is 2.43 nM. For the same molecule, in assay [3], the “EC50 hNPY2R 0.5% hP (CreLuc)” value came to 14.3 nM and the “EC50 hNPY2R 100% hP (CreLuc)” value amounted to 36.8 nM.

On to Y[Aib]EGTFTSDYSI[Aib]LEKQAQ[Aib]EFVEWLIK([γGlu-γGlu-γGlu-γGlu-C18 diacid])GGPSEGASLRHYYNWLTRQRY-NH2 (also: TFA salt) [Compound 276], for which, in assay [1], the “EC50 hGLP1R 0.5% hP (CreLuc)” value amounted to 0.35 nM and the “EC50 hGLP1R 100% hP (CreLuc)” value came out at 16.7 nM. Besides, in assay [2], the “EC50 hGIPR 0.5% hP (CreLuc)” value came out at 0.37 nM and the “EC50 hGIPR 100% hP (CreLuc)” value turned out to be 1.82 nM. In addition, in assay [3], the “EC50 hNPY2R 0.5% hP (CreLuc)” value turned out to be 20.7 nM and the “EC50 hNPY2R 100% hP (CreLuc)” value was 73.7 nM.

For the molecule Y[Aib]EGTFTSDYSI[Aib]LEKQAQ[Aib]AFIEWLIK([γGlu-γGlu-γGlu-γGlu-C20 diacid])GGPSEGASLRHYYNWLTRQRY-NH2 (also: TFA salt) [Compound 283], in assay [1], the “EC50 hGLP1R 0.5% hP (CreLuc)” value was 0.13 nM and the “EC50 hGLP1R 100% hP (CreLuc)” value is 3.86 nM. Further, in assay [2], the “EC50 hGIPR 0.5% hP (CreLuc)” value was 0.23 nM and the “EC50 hGIPR 100% hP (CreLuc)” value came to 1.86 nM. Besides, in assay [3], the “EC50 hNPY2R 0.5% hP (CreLuc)” value is 14.7 nM and the “EC50 hNPY2R 100% hP (CreLuc)” value is 104 nM.

On to Y[Aib]EGTFTSDYSI[Aib]LEKQAQ[Aib]AFVQWLIK([Glu-Glu-Glu-Glu-C18 diacid])GGPSEGASLRHYYNWLTRQRY-NH2 (also: TFA salt) [Compound 281], for which, in assay [1], the “EC50 hGLP1R 0.5% hP (CreLuc)” value was 0.07 nM and the “EC50 hGLP1R 100% hP (CreLuc)” value worked out at 1.78 nM. In assay [2], the “EC50 hGIPR 0.5% hP (CreLuc)” value is 0.28 nM and the “EC50 hGIPR 100% hP (CreLuc)” value amounted to 0.69 nM. In assay [3], the “EC50 hNPY2R 0.5% hP (CreLuc)” value was 23 nM and the “EC50 hNPY2R 100% hP (CreLuc)” value was 169 nM.

The values above are taken from patent US20240247080A1, “GLP1/GIP/NPY2 RECEPTOR TRIPLE AGONISTS” (Boehringer Ingelheim International GmbH, priority 2022, published 2024).
